Tests used:
DnaK peptide H14 = biological target: T1, DnaK peptide H14 (P. aeruginosa); experiment: peptide or protein array; SPOT membrane of 209 synthetic 15-mer peptides (shift of 3) spanning DnaK on cellulose; probed with purified recombinant FliC (GST cleaved); bound FliC detected with anti-FliC antibody and alkaline phosphatase secondary antibody; intensity by ImageJ, background subtracted; settings: both partners purified
T1 construct: 15-residue stretch of P. aeruginosa DnaK, spot H14 of the DnaK SPOT membrane, domain SBD; source: synthetic peptide, SPOT membrane (cellulose)
T1 peptide: QGDALVHATRKMITE

DnaK peptide H13 = biological target: T2, DnaK peptide H13 (P. aeruginosa); experiment: as above; settings: both partners purified
T2 construct: 15-residue stretch of P. aeruginosa DnaK, spot H13 of the DnaK SPOT membrane, domain SBD; source: synthetic peptide, SPOT membrane (cellulose)
T2 peptide: ARNQGDALVHATRKM

DnaK peptide E18 = biological target: T3, DnaK peptide E18 (P. aeruginosa); experiment: as above; settings: both partners purified
T3 construct: 15-residue stretch of P. aeruginosa DnaK, spot E18 of the DnaK SPOT membrane, domain NBD (ATPase); source: synthetic peptide, SPOT membrane (cellulose)
T3 peptide: IHEVILVGGQTRMPL

DnaK peptide E20 = biological target: T4, DnaK peptide E20 (P. aeruginosa); experiment: as above; settings: both partners purified
T4 construct: 15-residue stretch of P. aeruginosa DnaK, spot E20 of the DnaK SPOT membrane, domain NBD (ATPase); also called E20 (DnaK membrane); source: synthetic peptide, SPOT membrane (cellulose)
T4 peptide: VGGQTRMPLVQKTVA

FliC peptide E22 = biological target: T5, FliC peptide E22 (P. aeruginosa); experiment: peptide or protein array; SPOT membrane of 159 synthetic 15-mer peptides (shift of 3) spanning FliC on cellulose; probed with purified recombinant DnaK (GST cleaved); bound DnaK detected with anti-DnaK antibody and alkaline phosphatase secondary antibody; intensity by ImageJ, background subtracted; settings: both partners purified
T5 construct: 15-residue stretch of P. aeruginosa FliC, spot E22 of the FliC SPOT membrane, domain D2; source: synthetic peptide, SPOT membrane (cellulose)
T5 peptide: TGYVQLNSPTAYSVS

FliC peptide B18 = biological target: T6, FliC peptide B18 (P. aeruginosa); experiment: as above; settings: both partners purified
T6 construct: 15-residue stretch of P. aeruginosa FliC, spot B18 of the FliC SPOT membrane, domain D1; source: synthetic peptide, SPOT membrane (cellulose)
T6 peptide: TRISDTTTFGGRKLL

FliC peptide F22 = biological target: T7, FliC peptide F22 (P. aeruginosa); experiment: as above; settings: both partners purified
T7 construct: 15-residue stretch of P. aeruginosa FliC, spot F22 of the FliC SPOT membrane, domain D1; source: synthetic peptide, SPOT membrane (cellulose)
T7 peptide: NRFKNTIDNLTNISE

FliC peptide A16 = biological target: T8, FliC peptide A16 (P. aeruginosa); experiment: as above; settings: both partners purified
T8 construct: 15-residue stretch of P. aeruginosa FliC, spot A16 of the FliC SPOT membrane, domain D1; source: synthetic peptide, SPOT membrane (cellulose)
T8 peptide: AGLQISNRLSNQISG

FliC peptide A10 = biological target: T9, FliC peptide A10 (P. aeruginosa); experiment: as above; settings: both partners purified
T9 construct: 15-residue stretch of P. aeruginosa FliC, spot A10 of the FliC SPOT membrane, domain D0; source: synthetic peptide, SPOT membrane (cellulose)
T9 peptide: SLQRLTTGYRINSAK

FliC peptide D5 = biological target: T10, FliC peptide D5 (P. aeruginosa); experiment: as above; settings: both partners purified
T10 construct: 15-residue stretch of P. aeruginosa FliC, spot D5 of the FliC SPOT membrane, domain D3; source: synthetic peptide, SPOT membrane (cellulose)
T10 peptide: IPNLSARARTVFTAD

FliC peptide E21 = biological target: T11, FliC peptide E21 (P. aeruginosa); experiment: as above; settings: both partners purified
T11 construct: 15-residue stretch of P. aeruginosa FliC, spot E21 of the FliC SPOT membrane, domain D2; source: synthetic peptide, SPOT membrane (cellulose)
T11 peptide: TVVTGYVQLNSPTAY

FliC peptide E20 = biological target: T12, FliC peptide E20 (P. aeruginosa); experiment: as above; settings: both partners purified
T12 construct: 15-residue stretch of P. aeruginosa FliC, spot E20 of the FliC SPOT membrane, domain D2; also called E20 (FliC membrane); source: synthetic peptide, SPOT membrane (cellulose)
T12 peptide: ATTTVVTGYVQLNSP

FliC peptide A9 = biological target: T13, FliC peptide A9 (P. aeruginosa); experiment: as above; settings: both partners purified
T13 construct: 15-residue stretch of P. aeruginosa FliC, spot A9 of the FliC SPOT membrane, domain D0; source: synthetic peptide, SPOT membrane (cellulose)
T13 peptide: LNTSLQRLTTGYRIN

FliC peptide D20 = biological target: T14, FliC peptide D20 (P. aeruginosa); experiment: as above; settings: both partners purified
T14 construct: 15-residue stretch of P. aeruginosa FliC, spot D20 of the FliC SPOT membrane, domain D2; source: synthetic peptide, SPOT membrane (cellulose)
T14 peptide: LADQLNSNSSKLGIT

FliC peptide F19 = biological target: T15, FliC peptide F19 (P. aeruginosa); experiment: as above; settings: both partners purified
T15 construct: 15-residue stretch of P. aeruginosa FliC, spot F19 of the FliC SPOT membrane, domain D1; source: synthetic peptide, SPOT membrane (cellulose)
T15 peptide: QRADLGAVQNRFKNT

FliC peptide C20 = biological target: T16, FliC peptide C20 (P. aeruginosa); experiment: as above; settings: both partners purified
T16 construct: 15-residue stretch of P. aeruginosa FliC, spot C20 of the FliC SPOT membrane, domain D3; source: synthetic peptide, SPOT membrane (cellulose)
T16 peptide: VGGGQVKNIAIAAGD

[1] = biological target: SOD1bar mutant G41D (SOD1bar-G41D), FRET folding sensor; experiment: cell-based or functional assay

B1: purified recombinant P. aeruginosa FliC (natural protein, UniProt A0A0H2Z7X1 1-488, looked up)
chain: MALTVNTNIASLNTQRNLNASSNDLNTSLQRLTTGYRINSAKDDAAGLQISNRLSNQISGLNVATRNANDGISLAQTAEGALQQSTNILQRIRDLALQSANGSNSDADRAALQKEVAAQQAELTRISDTTTFGGRKLLDGSFGTTSFQVGSNAYETIDISLQNASASAIGSYQVGSNGAGTVASVAGTATASGIASGTVNLVGGGQVKNIAIAAGDSAKAIAEKMDGAIPNLSARARTVFTADVSGVTGGSLNFDVTVGSNTVSLAGVTSTQDLADQLNSNSSKLGITASINDKGVLTITSATGENVKFGAQTGTATAGQVAVKVQGSDGKFEAAAKNVVAAGTAATTTVVTGYVQLNSPTAYSVSGTGTQASQVFGNASAAQKSSVASVDISTADGAQNAIAVVDNALAAIDAQRADLGAVQNRFKNTIDNLTNISENATNARSRIKDTDFAAETAALSKNQVLQQAGTAILAQANQLPQAVLSLLR
notes: FliC (flagellin type B) of P. aeruginosa UCBPP-PA14, gene amplified with primers fliCFw/Rv and cloned BamHI/XhoI into pGEX-6P-1; also called FliC-GST (before cleavage); source: E. coli BL21(λDE3), pGEX-6P-1-fliC, purified (Glutathione Sepharose 4B, eluted by prescission protease)
Intensity (DnaK peptide H14): 3.34 relative intensity | Intensity (DnaK peptide H13): 2.23 relative intensity | Intensity (DnaK peptide E18): 2.23 relative intensity | Intensity (DnaK peptide E20): 2.22 relative intensity

B2: purified recombinant P. aeruginosa DnaK (natural protein)
chain: not shown
notes: DnaK of P. aeruginosa UCBPP-PA14, gene amplified with primers dnaKFw/Rv and cloned BamHI/XhoI into pGEX-6P-1; also called DnaK-GST (before cleavage); source: E. coli BL21(λDE3), pGEX-6P-1-dnaK, purified (Glutathione Sepharose 4B, eluted by prescission protease)
Intensity (FliC peptide E22): 3.55 relative intensity | Intensity (FliC peptide B18): 5.07 relative intensity | Intensity (FliC peptide F22): 2.3 relative intensity | Intensity (FliC peptide A16): 4.17 relative intensity | Intensity (FliC peptide A10): 2.4 relative intensity | Intensity (FliC peptide D5): 2.22 relative intensity | Intensity (FliC peptide E21): 2.87 relative intensity | Intensity (FliC peptide E20): 2.36 relative intensity | Intensity (FliC peptide A9): 2.51 relative intensity | Intensity (FliC peptide D20): 2.85 relative intensity | Intensity (FliC peptide F19): 2.34 relative intensity | Intensity (FliC peptide C20): 3.05 relative intensity | decrease of the melting temperature (Tm) of SOD1bar-G41D with DnaK (20 μM), pH 7, fast relaxation imaging (FReI); not affected by ATP or AMP-PNP [1]: ~10 K | fold decrease of the maximal ΔD/A Initial of DnaK+SOD1bar-G41D at pH 6 when 2 mM ATP or AMP-PNP was added [1]: ~1.7 fold | fold increase of kobs of the ΔD/A Initial curve of DnaK+SOD1bar-G41D at pH 6 when 2 mM AMP-PNP was added [1]: 2 fold | fold increase of kobs of the ΔD/A Initial curve of DnaK+SOD1bar-G41D at pH 6 when 2 mM ATP was added [1]: 4 fold | melting temperature (Tm) of SOD1bar-G41D when supplemented with DnaK, FReI [1]: 308 K | reduction of the folding rate (kf) of SOD1bar-G41D at 310 K with DnaK (20 μM), pH 7, FReI [1]: ~3 fold
